Test results: the MegaScale stability set (Tsuboyama et al. 2023)

B1: HEEH_KT_rd6_0790 (parent)
chain: SEEEEEEWRRAKERGEEIIILGILWKPNDEEAERRIKEALRRV
B2: EEHEE_rd4_0647 (parent)
chain: MQVTWGNVTVTFSNPEEAKKYAEKVARKLGGQVELHNGQFRIK

Variants of: B1
Experiment: folding stability dG (cDNA display proteolysis); higher = more stable
Settings: PBS, room temperature

Folding stability dG [kJ/mol] of substitutions, site by site:
E3: P 9.57 | D 9.84 | S 10.4 | W 10.4 | N 9.87 | M 9.36 | R 10 | L 9.53 | T 9.89 | F 9.92 | K 10.3 | V 9.77 | Q 9.74 | I 9.7 | G 9.74 | Y 10.2 | A 9.76 | H 9.75
E4: R 8.5 | H 10.1 | Q 9.19 | L 14.2 | S 9.26 | T 9.56 | K 8.01 | G 8.54 | V 11.3 | M 11.8 | A 11.2 | W 14 | I 13.2 | D 9.07 | Y 12.3 | F 11.6 | N 8.12 | P 10.4
E7: N 10.6 | F 12.2 | D 8.31 | I 9.87 | C 10.8 | M 11 | P 5.52 | Y 9.15 | H 8.95 | A 11.6 | L 11.1 | S 9.68 | K 12.2 | R 12.4 | W 12 | V 8.74 | G 7.57 | Q 10.2 | T 8.38
E2: W 10.6 | L 10.4 | R 10 | V 9.77 | M 10.3 | K 9.17 | A 9.19 | C 11 | S 10.9 | G 9.79 | P 9.27 | I 10.2 | D 9.04 | Y 10.8 | T 10.4 | F 11.3 | N 9.51 | H 10.5 | Q 9.56
S1: D 8.85 | R 9.13 | V 10.7 | A 9.94 | H 11.2 | K 8.79 | G 11 | T 9.87 | Y 11.5 | Q 9.01 | W 11.6 | I 10.9 | N 9.12 | M 10.5 | P 9.32 | F 11.4 | C 11.8 | E 9.32 | L 10.7
W8: M 5.62 | H 3.45 | S 3.32 | R 3.69 | K 3.44 | E 3.11 | L 8.16 | F 9.69 | G 3.42 | P 4.18 | C 6.99 | V 4.69 | D 3.86 | N 2.83 | I 6.2 | T 3.49 | A 4.08 | Y 7.2 | Q 3.85
E5: I 8.15 | T 7.51 | R 6.14 | W 10.1 | N 7.67 | A 7.28 | M 8.79 | V 7.23 | F 8.92 | H 7.55 | G 5.9 | Y 9.2 | P 7.97 | K 5.68 | L 9.09 | Q 6.72 | D 8.06 | S 7.22
E6: M 7.82 | S 6.82 | P 5.67 | T 6.61 | V 6.87 | I 7.4 | N 7.74 | R 6.92 | C 10.2 | H 6.75 | Y 8.72 | K 7.18 | A 8.31 | L 8.08 | D 8.73 | G 6.09 | W 8.75 | F 8.09 | Q 7.21
R9: Q 8.19 | H 7.65 | E 8.11 | S 6.77 | F 7.75 | P 4.12 | K 8.2 | W 8.04 | I 8.12 | C 7.31 | D 5.71 | V 7.33 | M 7.96 | A 8 | N 7.73 | L 8.82 | G 5.47 | T 7.28

Variants of: B2
Experiment: as above
Settings: PBS, room temperature

Folding stability dG [kJ/mol] of substitutions, site by site:
N37: H 8.97 | S 8.08 | Y 7.1 | A 8.57 | D 11.3 | M 8.82 | V 5.82 | W 5.54 | G 9.7 | F 7.94 | I 5.89 | R 8.03 | T 5.71 | L 8.95 | K 9.45 | E 10.7 | Q 9.5 | P 6.63
H36: T 10.9 | Q 10.6 | F 11.7 | A 10.5 | N 9.76 | L 12.1 | I 14 | W 11.9 | S 10.9 | G 7.53 | Y 11.7 | P 1.36 | D 10.6 | M 11.2 | V 14 | C 14.1 | K 11.1 | R 10.8 | E 11.6
Q39: W 7.1 | L 8.77 | P 1.13 | T 11.3 | A 11.4 | M 10.9 | I 12.9 | S 11.1 | K 10.2 | H 12.3 | Y 9.59 | G 12.9 | E 11.4 | C 11.2 | V 12.5 | R 10.3 | F 9.31 | N 11.5 | D 8.2
I42: N 2.36 | T 2.29 | F 4.62 | D 2.18 | L 4.55 | W 4.71 | Q 1.88 | E 1.9 | H 2.9 | R 2.15 | V 10.5 | Y 3.15 | M 2.7 | G 2.55 | S 2.4 | P 3.28 | K 2.25 | A 2.04 | C 8.15
L35: R 8.92 | Y 13.1 | V 11.8 | K 8.83 | F 13.2 | I 11.9 | P 5.46 | E 10.5 | G 6.18 | Q 9.54 | S 8.53 | H 8.81 | W 11 | T 9.39 | N 8.22 | M 11.8
G38: H 16.4 | L 6.1 | I 3.71 | C 12 | T 5.69 | M 6.89 | Y 6.86 | R 7.9 | E 6.01 | F 7.24 | Q 6.97 | W 5.2 | S 6.69 | K 7.59 | D 8.01 | V 3.38 | A 5.51 | P 2.77 | N 10.3
K43: G 8.51 | E 9.55 | Y 12.1 | W 11.2 | R 12.5 | Q 10.8 | A 10.8 | C 14.4 | T 13.1 | V 14.7 | M 12 | N 10.8 | P 7.52 | S 11 | H 11.1 | F 12.4 | I 14.7 | D 8.06 | L 13.4
F40: C 6.31 | A 3.72 | L 11.9 | M 8.15 | D 1.9 | V 6.1 | I 10.4 | E 1.9 | K 2.01 | Y 13.4 | S 1.29 | Q 3.4 | P 2.75 | T 2.62 | N 2.66 | R 2.79 | G 1.36 | W 13.6 | H 4.5
R41: L 13.2 | P 2.07 | N 9.93 | D 5.5 | Q 11.1 | I 14.8 | S 8.82 | T 11.9 | A 8.58 | V 14.6 | H 12.6 | G 5.45 | W 13.2 | M 12.3 | F 14.6 | C 12.3 | Y 14 | E 9.4 | K 10.6
